Measured values: patent US12510548B2, “Method of determining toxicity of an immunomodulatory drug for use in humans” (The Jackson Laboratory, priority 2017, dated 2025)
Read-outs that look alike come from different tables or passages of the source.

Assays:
NK cells = conditions: cited from earlier work
hPBMC humanized NSG mice [1] = assay: Human cytokine release in sera of hPBMC humanized NSG mice after drug injection (BD CBA Th1/Th2 II kit); conditions: mouse, in vivo
Protocol: PBMCs of nine […] different donors were used to produce humanized NSG mice for these experiments. On day 6 of hPBMC engraftment (2×10^7 PBMCs/mouse), the mice were induced for human cytokine release by i.v. injection with antibodies OKT3 (anti-CD3 mAb; BioLegend, Cat. No. 317302) or ANC28.1/5D10 (also referred to as “ANC28”, “anti-CD28 mAb,” or “anti-CD28”; Ancell, Cat. No. 177-824). PBS buffer served as a negative control. The mice were bled at 2 and 6 hours, sera were collected and analyzed for cytokine concentrations using BD Cytometric Bead Array (CBA) Human Th1/Th2 Cytokine kit II (BD, Cat. No. 551809) (See, FIGS. 5A-5F).
FIGS. 5A-5F depict multiple graphs of concentration of different cytokines (i.e., IFN-γ, IL-6, IL-2, IL-10, IL-4, and TNF, respectively) measured at 2 and 6 hours after injection of antibodies OKT3 (anti-CD3 mAb) and ANC28 (anti-CD28) into sets of humanized mice for nine (9) different donors. Mice were i.v. injected with 0.5 mg/kg OKT3 or 1 mg/kg anti-CD28, and 5 ml/kg PBS (a negative control). Mice were bled at 2 and 6 hours and circulating cytokine concentrations were measured by BD CBA Th1/Th2 II kit.
To do so, a high number of PBMCs (i.e., 5×10^7/mouse) was engrafted into the humanized NSG mice. On day 6, the mice received the drug and a cytokine release profile was determined. Here, the IFN-γ and Il-10 levels were evaluated as in the above-mentioned experiments using 2×10^7 PBMCs/mouse.
On day 6 after engraftment, the mice received the immunotherapeutic drug (mAb) and a cytokine release profile was determined in these three groups of mice. Mice were bled at 2 and 6 hours and circulating cytokine concentrations were measured by BD CBA Th1/Th2 II kit. FIGS. 10A-F depict the cytokine levels after drug injection in donor 309 humanized NSG mice engrafted with 2×10^7, 3×10^7, or 4×10^7PBMCs/mouse. FIG. 10A depicts the INFγ level for each group of mice. FIG. 10B depicts the IL-10 level for each group of mice. FIG. 10C depicts the IL-6 level for each group of mice. FIG. 10D depicts the IL-2 level for each group of mice. FIG. 10E depicts the IL-4 level for each group of mice. FIG. 10F depicts the TNF level for each group of mice.
In this study, the inventors examined different concentrations of […]® (pembrolizumab) to determine if there is dosage dependence in the CRS in humanized mice. 6-week old female NOD.Cg-Prkdc^scid Il2rg^tm1Wjl/SzJ (NSG, JAX stock number 005557) mice were irradiated with 100cGy X-ray at least 4 hours prior to human PBMCs engraftment. The PBMCs in these experiments were from donor 358. Purified/isolated human PBMCs were intravenously injected into the mice at 3×10^7 cells/mouse. Six days after PBMC engraftment, mice were iv injected with PBS (negative control), 0.5 mg/kg OKT3 (positive control), 2.5 mg/kg, 5 mg/kg, or 10 mg/kg […]®. There were 5 mice per group. These […]® dosages are in the range of dosages studied in clinical trials discussed on the U.S. prescribing information for […]®. Few adverse effect reports of severe cytokine release syndrome after […]® administration have been documented. Mice were bled at 2 and 6 hours and circulating cytokine concentrations were measured using a BD CBA Th1/Th2 II kit. As shown in FIGS. 12A-F, the level measured after injection of the positive control OKT3 was very high for each of IFN-γ, IL-10, IL-6, IL-2, IL-4, and TNF. […]

human PBMCs = assay: In vitro PBMC assay of cytokine release (drug-coated plate); format: cell-based; conditions: donor 213; anti-CD28 10 μg/well, OKT3 1 mg/ml; supernatant day 2
Protocol: Day −1: Coated the plate with drugs: dilute drug (e.g., an antibody) in PBS; leave plate open under hood.
Day 0: Process PBMCs from each donor. PBMCs were from donor 213, 309, 345, or 366. Thaw PBMCs in supplemented RPMI and wash once. Count cells and re-suspend in supplemented RPMI at 1×10^6 cells/ml. Wash coated wells twice with 200 μl PBS and then once with 200 μL supplemented RPMI. Plate 100 μl of cells in each well (for a total of 1×10^5 cells per well).
Day 2: Harvest supernatant from each well and measure the cytokine level using a BD CBA Th1/Th2 II kit.
The two methods for determining cytokine release levels after a drug treatment were compared for treatment of PBMCs from four different donors with an anti-CD28 antibody (Ancell, Cat. No. 177-824). For the in vitro assay, anti-CD28 was dosed at 10 μg/well in the 96 well plates. For the in vivo method, anti-CD28 was dosed at 1 mg/kg. Supernatants of the in vitro PBMC culture wells and serum from the mice were collected and cytokine levels were measured. Antibody OKT3 (0.5 mg/kg for the in vivo assay or 1 mg/ml for the in vitro assay) was used as a positive control and either PBS or isotype antibodies were used as negative controls in the in vivo assay or the in vitro assay, respectively. The cytokine levels determined are presented in FIGS. 14A (IFN-γ and IL-10) and 14B (IL-6 and IL-4) as mean values±standard error of the mean (SEM).

non-humanized mice = assay: Administration of antibodies to non-humanized mice, cytokine responses; conditions: mouse, in vivo
hPBMC humanized NSG mice [2] = conditions: mouse, in vivo
Description: The clinical score in the mice was monitored by performing the signs and the grading of scores as follow: Score: 0=normal activity; 1=normal activity, piloerection, tiptoe gait; 2=hunched, reduced activity but still mobile; 3=hypomotile but mobile when prompted; 4=moribund (point of death). Mice with a clinical score of 4 were euthanized.
As in a reference by Brady et al., Clinical & Translational Immunology, 2014, the inventors performed the signs and the grading of scores as follow: Score: 0=normal activity; 1=normal activity, piloerection, tiptoe gait; 2=hunched, reduced activity but still mobile; 3=hypomotile but mobile when prompted; 4=moribund (point of death). Mice with a clinical score of 4 were euthanized.

hPBMC humanized NSG mice [3] = conditions: mouse, in vivo; remark: listed apart in the source
Protocol: Rectal temperature of the mice of Examples 5 and 6 was measured before treatment and again immediately before each time-point bleed. […] Rectal temperature was measured in hPMBCs humanized mice of 10 donors injected with control PBS, OKT3, and anti-CD28. The number of mice for each group was 2-5 and data are presented as mean±SEM.
Rectal temperature of the mice was measured before treatment and again immediately before each time-point bleed. Temperature was measured by the insertion of a rectal thermocouple probe and waiting until a stable reading was obtained.

Substance | cytokine release in vivo (NK cells) | cytokine levels in non-irradiated mice compared to irradiated mice (hPBMC humanized NSG mice [1]) | major inflammatory cytokines in treated humanized mice (hPBMC humanized NSG mice [1]) | level of each of IFN-γ, IL-10, IL-6, IL-2, IL-4, and TNF (hPBMC humanized NSG mice [1]; iv, 0.5 mg/kg) | IFN-γ, IL-10, IL-6, and IL-4 levels versus control isotype antibody, in vitro (human PBMCs) | cytokine responses in non-humanized mice (non-humanized mice) | clinical score (hPBMC humanized NSG mice [2]) | body temperature (rectal) (hPBMC humanized NSG mice [3]) | cytokine levels (hPBMC humanized NSG mice [1]; iv, 2.5 mg/kg) | clinical score (hPBMC humanized NSG mice [2]; 5 mg/kg) | clinical score (hPBMC humanized NSG mice [2]; 10 mg/kg)
alemtuzumab [CAMPATH 1-H] | high levels of TNF, IFN-γ and IL-6 |  |  |  |  |  |  |  |  |  | 
muromonab-CD3 [OKT3] |  | consistently lower | significant increase in major inflammatory cytokines | very high | much higher than levels determined after dosing with the control isotype antibody | did not induce the cytokine responses | 1 | below 36 °C |  |  | 
pembrolizumab |  | consistently lower |  |  |  |  |  |  | within the error range of the level measured for the PBS control group | the same as positive control | the same as positive control
